In patent US20140079706A1:

How the values were obtained:
Assay in all cases: cell-based or functional assay
[1] = biological target: human wildtype CSF-1R (wt CSF-1R), full-length, on cells (human) (UniProt P07333)
[2] = biological target: human mutant CSF-1R L301S Y969F, full-length, on NIH 3T3 cells (human) (UniProt P07333)
[3] = biological target: CSF-1R on cynomolgous monocytes (cynomolgous)

Anti CSF-1R SC 2-4A5 (Santa Cruz Biotechnology, US) (antibody)
wtCSF-1R IC30 (cell viability, CellTiterGlo, 3D spheroids) [1]: 16.6 µg/mL
wtCSF-1R IC50 (cell viability, CellTiterGlo, 3D spheroids) [1]: 10 µg/mL
Mutant CSF-1R IC30 (cell viability, CellTiterGlo, 3D spheroids) [2]: 2.56 µg/mL
Mutant CSF-1R IC50 (cell viability, CellTiterGlo, 3D spheroids) [2]: 10 µg/mL
% inhibition (of survival) = (100% - % survival), cynomolgous monocytes, 5 µg/ml antibody [3]: 69%
% survival of cynomolgous monocytes at 5 µg/ml antibody (150 ng/ml huCSF-1, CellTiterGlo) [3]: 31%

goat polyclonal anti-CSF-1R antibody ab10676 (abcam)
wtCSF-1R IC30 (cell viability, CellTiterGlo, 3D spheroids) [1]: 14.2 µg/mL
% inhibition at 20 µg/ml, mutant CSF-1R cells [2]: 0%
Mutant CSF-1R IC30 (cell viability, CellTiterGlo, 3D spheroids) [2]: > 20 µg/mL
